# Data: ChEMBL document CHEMBL3826949, “Characterization of the action of tyrosinase on resorcinols” (Bioorg Med Chem, 2016)
# Active and inactive are the calls of the source. The calls are words filed in the database; no cut-off is given here.
# T1: Tyrosinase (Agaricus bisporus, UniProt O42713)
# T1 sequence (O42713 whole entry): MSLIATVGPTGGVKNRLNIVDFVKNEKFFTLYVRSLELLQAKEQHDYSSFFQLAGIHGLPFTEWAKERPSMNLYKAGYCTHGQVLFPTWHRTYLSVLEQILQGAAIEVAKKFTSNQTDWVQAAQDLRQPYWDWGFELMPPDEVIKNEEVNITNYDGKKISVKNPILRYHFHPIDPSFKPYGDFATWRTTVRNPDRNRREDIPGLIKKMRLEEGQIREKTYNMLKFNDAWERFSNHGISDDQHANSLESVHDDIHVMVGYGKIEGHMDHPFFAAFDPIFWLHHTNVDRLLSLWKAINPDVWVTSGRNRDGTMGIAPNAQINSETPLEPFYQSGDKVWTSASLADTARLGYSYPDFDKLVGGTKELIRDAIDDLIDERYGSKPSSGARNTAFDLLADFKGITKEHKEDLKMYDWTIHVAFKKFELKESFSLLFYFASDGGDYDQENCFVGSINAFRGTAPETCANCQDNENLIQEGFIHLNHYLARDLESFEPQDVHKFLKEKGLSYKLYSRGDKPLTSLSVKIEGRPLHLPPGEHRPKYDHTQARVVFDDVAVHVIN
# T2: Tyrosinase (Agaricus bisporus) (UniProt O42713)
# T2 sequence (whole entry): T1 sequence (O42713 whole entry)
# B1: Tyrosinase (Agaricus bisporus), O42713 (protein)
# chain: T1 sequence (O42713 whole entry)
# What was measured:
# Tyrosinase [1] = biological target: T1, Tyrosinase; assay: Inhibition of mushroom tyrosinase using L-dopa as substrate assessed as diphenolase activity by spectrophotometric analysis
# [2] = biological target: T2, Tyrosinase (Agaricus bisporus); assay: Inactivation of mushroom tyrosinase using TBC as substrate assessed as reduction in p-quinone accumulation pre-incubated at 0.3 mM for shorter time duration during 0 to 500 secs by spectrophotometric analysis
# [3] = biological target: T2, Tyrosinase (Agaricus bisporus); assay: Activity of mushroom tyrosinase using TBC as substrate assessed as accumulation of p-quinone in presence of H2O2 spectrophotometric analysis
# [4] = biological target: T2, Tyrosinase (Agaricus bisporus); assay: Inactivation of mushroom tyrosinase using TBC as substrate assessed as reduction in p-quinone accumulation pre-incubated at 0.3 mM for longer time duration during 0 to 500 secs by spectrophotometric analysis
# Tyrosinase [5] = biological target: T1, Tyrosinase; assay: Inhibition of mushroom tyrosinase using L-tyrosine as substrate assessed as monophenolase activity by spectrophotometric analysis
# [6] = biological target: T2, Tyrosinase (Agaricus bisporus); assay: Substrate activity at mushroom tyrosinase using TBC as substrate assessed as increase in TBC oxidation at 0.05 to 0.50 mM by spectrophotometric analysis
# [7] = biological target: T2, Tyrosinase (Agaricus bisporus); details: 30 uM
# Description: Inhibition of mushroom tyrosinase activity using TBC as substrate assessed as recovery of enzyme activity at 30 uM preincubated for 60 mins
# [8] = substrate: Oc1ccc(O)cc1; assay: (§1) Substrate activity at mushroom tyrosinase assessed as Kcat/Km ratio for monophenolase activity in presence H2O2 by spectrophotometry based Michaelis-Menten plot analysis; details: Agaricus bisporus
# [9] = substrate: Cc1ccc(O)cc1O; assay: as §1; details: Agaricus bisporus
# [10] = substrate: Oc1ccccc1; assay: as §1; details: Agaricus bisporus
# [11] = substrate: CCOc1ccc(O)cc1; assay: as §1; details: Agaricus bisporus
# [12] = substrate: Cc1c(O)cccc1O; assay: as §1; details: Agaricus bisporus
# [13] = substrate: N[C@@H](Cc1ccc(O)cc1)C(=O)O; assay: as §1; details: Agaricus bisporus
# [14] = substrate: Oc1cccc(O)c1; assay: as §1; details: Agaricus bisporus
# [15] = substrate: CCc1ccc(O)cc1O; assay: as §1; details: Agaricus bisporus
# [16] = substrate: COc1ccc(O)cc1; assay: as §1; details: Agaricus bisporus
# [17] = substrate: Oc1ccc(O)cc1; assay: (§2) Substrate activity at mushroom tyrosinase assessed as Km for monophenolase activity in presence H2O2 by spectrophotometry based Michaelis-Menten plot analysis; details: Agaricus bisporus
# [18] = substrate: Cc1ccc(O)cc1O; assay: as §2; details: Agaricus bisporus
# [19] = substrate: Oc1ccccc1; assay: as §2; details: Agaricus bisporus
# [20] = substrate: CCOc1ccc(O)cc1; assay: as §2; details: Agaricus bisporus
# [21] = substrate: Cc1c(O)cccc1O; assay: as §2; details: Agaricus bisporus
# [22] = substrate: N[C@@H](Cc1ccc(O)cc1)C(=O)O; assay: as §2; details: Agaricus bisporus
# [23] = substrate: Oc1cccc(O)c1; assay: as §2; details: Agaricus bisporus
# [24] = substrate: CCc1ccc(O)cc1O; assay: as §2; details: Agaricus bisporus
# [25] = substrate: COc1ccc(O)cc1; assay: as §2; details: Agaricus bisporus
# [26] = substrate: Oc1ccc(O)cc1; assay: (§3) Substrate activity at mushroom tyrosinase assessed as Kcat for monophenolase activity in presence H2O2 by spectrophotometry based Michaelis-Menten plot analysis; details: Agaricus bisporus
# [27] = substrate: Cc1ccc(O)cc1O; assay: as §3; details: Agaricus bisporus
# [28] = substrate: Oc1ccccc1; assay: as §3; details: Agaricus bisporus
# [29] = substrate: CCOc1ccc(O)cc1; assay: as §3; details: Agaricus bisporus
# [30] = substrate: Cc1c(O)cccc1O; assay: as §3; details: Agaricus bisporus
# [31] = substrate: N[C@@H](Cc1ccc(O)cc1)C(=O)O; assay: as §3; details: Agaricus bisporus
# [32] = substrate: Oc1cccc(O)c1; assay: as §3; details: Agaricus bisporus
# [33] = substrate: CCc1ccc(O)cc1O; assay: as §3; details: Agaricus bisporus
# [34] = substrate: COc1ccc(O)cc1; assay: as §3; details: Agaricus bisporus
molecule,measurement,setting,value
Cc1ccc(O)cc1O,IC50,Tyrosinase [1],3.3 µM
same,inhibition,[2],Active
same,Activity,[3],Active
same,inhibition,[4],inactive
same,IC50,Tyrosinase [5],9.31 µM
Oc1cccc(O)c1 [RESORCINOL],IC50,Tyrosinase [1],652 µM
same,inhibition,[2],Active
same,Activity,[3],Active
same,inhibition,[4],inactive
same,Activity,[6],Active
same,IC50,Tyrosinase [5],1130 µM
Cc1c(O)cccc1O,IC50,Tyrosinase [1],717 µM
same,Activity,[3],Active
same,Activity,[6],Active
same,IC50,Tyrosinase [5],1420 µM
CCc1ccc(O)cc1O,IC50,Tyrosinase [1],1.1 µM
same,inhibition,[2],Active
same,inhibition,[7],inactive
same,Activity,[3],Active
same,inhibition,[4],inactive
same,Activity,[6],Active
same,IC50,Tyrosinase [5],1.9 µM
B1,kcat/Km,[8],110000 M⁻¹ s⁻¹
same,kcat/Km,[9],38100 M⁻¹ s⁻¹
same,kcat/Km,[10],18100 M⁻¹ s⁻¹
same,kcat/Km,[11],776000 M⁻¹ s⁻¹
same,kcat/Km,[12],3700 M⁻¹ s⁻¹
same,kcat/Km,[13],37600 M⁻¹ s⁻¹
same,kcat/Km,[14],39900 M⁻¹ s⁻¹
same,kcat/Km,[15],51300 M⁻¹ s⁻¹
same,kcat/Km,[16],2.3e+06 M⁻¹ s⁻¹
same,Km,[17],920 µM
same,Km,[18],203 µM
same,Km,[19],700 µM
same,Km,[20],170 µM
same,Km,[21],2700 µM
same,Km,[22],210 µM
same,Km,[23],460 µM
same,Km,[24],117 µM
same,Km,[25],80 µM
same,kcat,[26],102 s⁻¹
same,kcat,[27],7.73 s⁻¹
same,kcat,[28],12.7 s⁻¹
same,kcat,[29],132 s⁻¹
same,kcat,[30],9.94 s⁻¹
same,kcat,[31],7.9 s⁻¹
same,kcat,[32],18.3 s⁻¹
same,kcat,[33],6 s⁻¹
same,kcat,[34],184 s⁻¹
